Experimental findings from paper PMC5612244 are described below.

In experiment [1] the target is recombinant EsGLUT4 extracellular region (between TM1 and TM2) (Eriocheir sinensis). As to the kind of experiment: BLI; ForteBio Octet RED96; biotinylated rEsGLUT4 region (50 µg/ml) immobilised on streptavidin (SA) sensors; four serial concentrations of CHHBP, highest 1 µM (intracellular region) and 0.38 µM (extracellular region); association 300 s, dissociation 600 s; room temperature; physiological saline for crab.

Experiment [2] has as its target recombinant EsGLUT4 intracellular region (between TM6 and TM7) (Eriocheir sinensis). The description is as above.

Take “recombinant CHH binding protein (CHHBP), an E. sinensis flotillin-like protein (natural protein)”: the Kd in experiment [1] came to 2.52 nM; in experiment [2], 6.81 nM.
